This note sets out measurements from patent US20220348650A1 (BIO THERA SOLUTIONS, published 2022).

The target of one assay is T1, mouse TIGIT (mouse, UniProt P86176 29-148, limits assumed).
T1 sequence: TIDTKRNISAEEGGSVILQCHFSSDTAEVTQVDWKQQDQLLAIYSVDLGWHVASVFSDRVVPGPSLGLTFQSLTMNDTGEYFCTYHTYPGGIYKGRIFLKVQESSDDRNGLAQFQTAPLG
Description: ELISA on mouse TIGIT, OD450. (In general: In an ELISA, binding on a coated surface is turned into a signal by an enzyme label.)

Assay [1] deals with T2, TIGIT-Fc fusion protein (human TIGIT extracellular region fused to human IgG1 constant region) (human). Description: competition ELISA: TIGIT-Fc coated at 2 µg/mL, antibody titrated in 2 µg/mL PVR-Fc-bio (blocked ligand), OD450.
In assay [2] the target is T3, human TIGIT (antigen of the ELISA and of the m10D8 Biacore assay; construct not stated) (human, UniProt Q495A1 22-141).
T3 sequence: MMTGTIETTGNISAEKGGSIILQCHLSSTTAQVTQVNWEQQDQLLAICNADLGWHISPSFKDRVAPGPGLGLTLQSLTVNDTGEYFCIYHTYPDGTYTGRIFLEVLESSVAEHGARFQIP
Description: Biacore SPR; antigen not given. For orientation: Surface plasmon resonance follows binding to a sensor surface in real time, without labels.

The target in assay [3] is T3, human TIGIT (antigen of the ELISA and …). Description: ELISA, binding to TIGIT (FIG. 12).
In assay [4] the target is T4, full-length human TIGIT on the cell surface (Jurkat-hTIGIT 2E6, CTI-Jurkat, primary human CD3+ cells) (human, UniProt Q495A1 22-244).
T4 construct: whole, on cells; also called TIGIT on Jurkat cell membrane; Jurkat cells overexpressing human TIGIT
T4 sequence (looked up): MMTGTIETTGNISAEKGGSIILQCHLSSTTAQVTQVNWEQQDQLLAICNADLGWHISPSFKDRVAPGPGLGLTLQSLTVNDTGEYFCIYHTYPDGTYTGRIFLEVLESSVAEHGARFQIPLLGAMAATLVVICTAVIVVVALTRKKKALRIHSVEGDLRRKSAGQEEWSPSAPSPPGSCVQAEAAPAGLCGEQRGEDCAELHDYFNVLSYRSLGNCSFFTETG
Briefly: flow cytometry on Jurkat-hTIGIT cells: antibody titrated against biotinylated PVR-Fc (blocked ligand), detected with streptavidin PE, mean FL2-A. The protocol: (§1) The antibody was serially two-fold diluted from 15 nM to the 10th concentration (including 0 nM). The 10 concentration gradients of antibody were separately transferred into 10 centrifuge tubes each containing 1×10⁶ Jurkat-hTIGIT cells. The cells were then resuspended, and the mixture was incubated at 4° C. for 1 hour. The cells were centrifuged. The supernatant was discarded and the cells were washed twice with PBS. The cells were resuspended in 100 μL of 1:2000 diluted streptavidin PE (Thermo, Cat. No.: 12-4317-87) and incubated at 4° C. for 40 minutes. The cells were centrifuged, and the supernatant was discarded. The cells were washed twice with PBS, resuspended in 200 μL of PBS, and were detected for fluorescent signal using a flow analyzer (mean FL2-A). Finally, the collected fluorescent signals were plotted by 4-parameter fitting for analysis, and the IC₅₀ was calculated.

In assay [5] the target is T5, TIGIT-his tag antigen (UniProt Q495A1 22-141, limits assumed).
T5 construct: also called univalent TIGIT-his; not shown: his tag
T5 sequence (looked up): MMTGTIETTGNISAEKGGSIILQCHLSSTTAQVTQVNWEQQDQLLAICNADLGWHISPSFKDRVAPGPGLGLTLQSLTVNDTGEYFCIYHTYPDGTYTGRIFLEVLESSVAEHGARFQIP
Briefly: SPR-Biacore; series 3.125 to 50 nM printed on the panel.

For assay [6], the target named is T4, full-length human TIGIT on the cell …. Briefly: binding to Jurkat-hTIGIT 2E6 cells, flow cytometry (FIG. 23). In general terms: In flow cytometry, cells or beads pass a laser one at a time.
Assay [7] addresses T2, TIGIT-Fc fusion protein (human TIGIT …). Description: competition ELISA, blocks PVR binding to TIGIT (method of Example 3).
Assay [8] has as its target T5, TIGIT-his tag antigen. Briefly: SPR-Biacore, TIGIT-his tag antigen (second batch).
In assay [9] the target is T5, TIGIT-his tag antigen. Description: SPR-Biacore, TIGIT-his tag antigen.
Assay [10] has as its target T3, human TIGIT (antigen of the ELISA and …). Briefly: ELISA, binding to TIGIT.
In assay [11] the target is T4, full-length human TIGIT on the cell …. Briefly: cell-based or functional assay.
For assay [12] the target is unchanged. Description: flow cytometry competition with 80 nM biotinylated PVR-Fc on Jurkat-hTIGIT cells. The method, then:
as §1

In assay [13] the target is T3, human TIGIT (antigen of the ELISA and …). Description: ELISA, binding to TIGIT (FIG. 11).

B1: 10A7 antibody (hamster anti-mouse TIGIT antibody, positive control) (antibody, V domains shown)
VH: EVQLVESGGGLTQPGKSLKLSCEASGFTFSSFTMHWVRQSPGKGLEWVAFIRSGSGIVFYADAVRGRFTISRDNAKNLLFLQMNDLKSEDTAMYYCARRPLGHNTFDSWGQGTLVTVSS
VL: DIVMTQSPSSLAVSPGEKVTMTCKSSQSLYYSGVKENLLAWYQQKPGQSPKLLIYYASIRFTGVPDRFTGSGSGTDYTLTITSVQAEDMGQYFCQQGINNPLTFGDGTKLEIKR
notes: also called positive anti-TIGIT antibody (10A7)
With B1, the 50% effective concentration (EC50 (read off the curve)) in the assay with mouse TIGIT was ~0.02 µg/mL. This molecule yielded a concentration for half-maximal inhibition (IC50) in [1] of 0.263 µg/mL.

B2: recombinant mouse anti-human TIGIT antibody m10D8 (antibody, mouse IgG2a, V domains shown)
VH: EVKLQESGGGLVQPGGSLKLSCAASGFTFSSYGMSWVRQNPDKRLELVATINSNGGSTYYPDSVKGRFTISRDNAKNTLYLQMSSLKSEDTAMYYCARLGTGTLGFAYWGQGTLVTVSS
VL: DIVMTQAHKFMSTSGGDRVSITCKASQDVKTAVSWYQQKPGQSPKLLIYWASTRHTGVPDRFTGSGSGTDYTLTISSVQAEDLALYYCQQHYSTPWTFGGGTKLEIKR
With B2, in the assay with mouse TIGIT, the binding result is given as “no binding (tested: about 2 µg/mL)”. Also, in assay [1], the IC50 stood at 0.273 µg/mL. In assay [2], the Kd is 0.197 nM, the off-rate constant (koff) turned out to be 0.0002 s⁻¹ and the kon worked out at 1.02e+06 M⁻¹ s⁻¹.

B3: Tiragolumab (positive control antibody) (antibody, human IgG1, kappa, V domains shown)
VH: EVQLQQSGPGLVKPSQTLSLTCAISGDSVSSNSAAWNWIRQSPSRGLEWLGKTYYRFKWYSDYAVSVKGRITINPDTSKNQFSLQLNSVTPEDTAVFYCTRESTTYDLLAGPFDYWGQGTLVTVSS
VL: not shown
Regarding B3, the EC50 was determined as 0.0536 µg/mL in assay [3] and 1.91 nM in assay [6]. For the same molecule, the half-inhibitory concentration (IC50) in assay [4] stood at 2.38 nM; in [7] it was 0.429 µg/mL. In addition, the values for the equilibrium dissociation constant (Kd) with TIGIT-his tag antigen [5] and with TIGIT-his tag antigen [8] were 0.133 nM and 0.113 nM, respectively. In the assay with TIGIT-his tag antigen [8], this molecule showed a koff of 9.24e-05 s⁻¹. Moreover, the association rate constant (kon) with TIGIT-his tag antigen [8] was 818000 M⁻¹ s⁻¹.

B4: h10D8V1 (antibody, human IgG1, kappa)
heavy: not shown
light: DIQMTQSPSTLSAFVGDTITITCKASQDVKTAVSWYQQKPGQPPKLLIYWASTRHTGVPDRFSGSGSGTDYTLTISSLQAEDVAVYYCQQHYSTPWTFGQGTKVDIKRTVAAPSVFIFPPSDEQLKSGTASVVCLLNNFYPREAKVQWKVDNALQSGNSQESVTEQDSKDSTYSLSSTLTLSKADYEKHKVYACEVTHQGLSSPVTKSFNRGEC
notes: Humanized m10D8, first round
In the assay with TIGIT-his tag antigen [9], B4 displayed a Kd of 2.18 nM, a koff of 0.000446 s⁻¹ and a kon of 205000 M⁻¹ s⁻¹. This molecule also came in with a concentration for a half-maximal effect (EC50) in assay [10] of 0.0762 µg/mL.

B5: h10D8V2 (antibody, human IgG1, kappa)
heavy: not shown
light: DIQMTQSPSTLSAFVGDTITITCKASQDVKTAVSWYQQKPGQPPKLLIYWASTRHTGVPDRFSGSGSGTDYTLTISSLQAEDVAVYYCQQHYSTPWTFGQGTKVDIKRTVAAPSVFIFPPSDEQLKSGTASVVCLLNNFYPREAKVQWKVDNALQSGNSQESVTEQDSKDSTYSLSSTLTLSKADYEKHKVYACEVTHQGLSSPVTKSFNRGEC
notes: Same variable regions as h10D8V1; differs at EU positions 356 and 358 of the constant region
With B5, the concentration for a half-maximal effect (EC50) in [3] was 0.0531 µg/mL. Moreover, in the assay with TIGIT-his tag antigen [9], the dissociation constant (Kd) amounted to 2.55 nM, the koff came out at 0.000492 s⁻¹ and the kon is 193000 M⁻¹ s⁻¹. In the assay with TIGIT-his tag antigen [8], this molecule gave a dissociation constant (Kd) of 0.468 nM, a koff of 0.00048 s⁻¹ and a kon of 1.02e+06 M⁻¹ s⁻¹. Also, the EC50 in assay [10] turned out to be 0.0924 µg/mL.

B6: h10D8OFKF (antibody, human IgG1, kappa, V domains shown)
VH: QVQLVESGGGVVQPGRSLRLDCKASGFTFSSYGMSWVRQAPGKGLELVATINSNGGSTYYPDSVKGRFTISRDNSKNTLFLQMNSLRAEDTAVYYCARLGTGTLGFAYWGQGTLVTVSS
VL: EIVMTQSPATLSLSPGERATLSCKASQDVKTAVSWYQQKPGQAPRLLIYWASTRATGIPARFSGSGSGTDYTLTISSLEPEDFAVYYCQQHYSTPWTFGQGTKVEIKR
modifications: fucose removed from the glycan (made in engineered CHO host cells)
On to B6, for which, in [11], the “ADCC activity EC50” value stood at 0.0152 nM and the “ADCC activity, fold of h10D8OF” value is 8.8 times that of h10D8OF.

B7: h10D8V4 (antibody, human IgG1, kappa, V domains shown)
VH: QVQLQESGGGLVQPGGSLRLSCAASGFTFSSYGMSWVRQAPGKGLELVATINSNGGSTYYPDSVKGRFTISRDNAKNTLYLQMNSLRAEDTAVYYCARLGTGTLGFAYWGQGTLVTVSS
VL: DIVMTQSPSTLSASVGDRVTITCKASQDVKTAVSWYQQKPGQPPKLLIYWASTRHTGVPDRFSGSGSGTDYTLTISSLQAEDVAVYYCQQHYSTPWTFGQGTKVEIKR
As to B7, the IC50 was determined as 15.8 nM in assay [12] and 0.217 µg/mL in [7]. Besides, the concentration giving a half-maximal response (EC50) in [13] is 0.0256 µg/mL.

B8: h10D8OF (antibody, human IgG1, kappa, V domains shown)
VH: QVQLVESGGGVVQPGRSLRLDCKASGFTFSSYGMSWVRQAPGKGLELVATINSNGGSTYYPDSVKGRFTISRDNSKNTLFLQMNSLRAEDTAVYYCARLGTGTLGFAYWGQGTLVTVSS
VL: EIVMTQSPATLSLSPGERATLSCKASQDVKTAVSWYQQKPGQAPRLLIYWASTRATGIPARFSGSGSGTDYTLTISSLEPEDFAVYYCQQHYSTPWTFGQGTKVEIKR
notes: Humanized m10D8, second round; LCDR2 is the mutant WASTRAT; also called anti-TIGIT antibody h10D8OF
For B8, the figures for the half-maximal inhibitory concentration (IC50) in [12], in assay [4] and in assay [7] were 11.3 nM, 0.656 nM and 0.159 µg/mL, respectively. Further, the concentration giving a half-maximal response (EC50) came to 0.0233 µg/mL in assay [13], 0.0427 µg/mL in assay [3] and 0.696 nM in assay [6]. Further, in assay [11], the “ADCC activity EC50” value turned out to be 0.125 nM. The molecule further came in with a Kd in the assay with TIGIT-his tag antigen [8] of 3.63 nM. Further, in the assay with TIGIT-his tag antigen [8], the dissociation rate constant (koff) amounted to 0.00183 s⁻¹. In the assay with TIGIT-his tag antigen [8], this molecule displayed an on-rate (kon) of 502000 M⁻¹ s⁻¹.

B9: h10D8V3 (antibody, human IgG1, kappa, V domains shown)
VH: EVQLVESGGGLVQPGGSLRLSCAASGFTFSSYGMSWVRQAPGKGLELVATINSNGGSTYYPDSVKGRFTISRDNSKNTLYLQMNSLRAEDTAVYYCARLGTGTLGFAYWGQGTLVTVSS
VL: DIQMTQSPSSLSASVGDRVTITCKASQDVKTAVSWYQQKPGKAPKLLIYWASTRHTGVPSRFSGSGSGTDYTLTISSLQPEDFATYYCQQHYSTPWTFGGGTKVEIKR
For B9, in the assay with TIGIT-his tag antigen [9], the dissociation constant Kd was 14.1 nM, the koff turned out to be 0.00114 s⁻¹ and the association rate constant (kon) was found to be 81200 M⁻¹ s⁻¹. For the same molecule, the response in [10] was half-maximal at 0.0526 µg/mL (EC50).

B10: h10D8V5 (antibody, human IgG1, kappa, V domains shown)
VH: QVQLQESGGGLVQPGGSLRLSCAASGFTFSSYGMSWVRQNPDKRLELVATINSNGGSTYYPDSVKGRFTISRDNAKNTLYLQMNSLRAEDTAMYYCARLGTGTLGFAYWGQGTLVTVSS
VL: DIVMTQSPKTLSASVGDRVTITCKASQDVKTAVSWYQQKPGQSPKLLIYWASTRHTGVPDRFSGSGSGTDYTLTISSLQAEDVALYYCQQHYSTPWTFGGGTKVEIKR
For B10, the half-inhibitory concentration (IC50) in assay [12] was 10.4 nM; in [7], 0.284 µg/mL. Besides, the response in [13] was half-maximal at 0.0241 µg/mL (EC50).

For orientation: EC50 (read off the curve) means the concentration at which the effect is half-maximal. A lower EC50 (read off the curve) goes with higher potency in that assay. What is called IC50 is the concentration that inhibits the measured activity by half. A lower IC50 goes with greater potency. What is called Kd is the equilibrium constant for the complex coming apart. One may read the koff as the rate constant with which the complex falls apart. Higher therefore signals a short-lived complex. What is called kon is the rate constant with which the complex forms. High values mean faster complex formation, low ones slower complex formation. By EC50 is commonly meant the concentration that produces a half-maximal response.
